Data from the Human Domainome abundance scans (Beltran et al. 2025).

B1: Segment polarity protein dishevelled homolog DVL-3, residues 2 to 81; numbered along this chain, Q92997 (parent)
chain: GETKIIYHLDGQETPYLVKLPLPAERVTLADFKGVLQRPSYKFFFKSMDDDFGVVKEEISDDNAKLPCFNGRVVSWLVSA

Variants of: B1
Test: abundance fitness (aPCA) (normalised: wild type 0, dead -1); higher = more abundant; growth selection in yeast, the domain comes from the species named
Settings: Homo sapiens

Abundance fitness, by site and new letter:
F45: H -0.864, W -0.605, L -0.775, E -0.379, S -0.856, K -0.934, I -0.969, P -0.581, A -0.533, M -0.868, R -0.669, T -0.596, N -0.407, V -0.755, Q -0.669, C -0.569, D -0.775
G34: M 0.042, A 0.174, R 0.156, D 0.418, Q 0.166, Y -0.388, T -0.016, P -1.03, W -0.649, C -0.213, N 0.291, L -0.119, V -0.371, H -0.388, I -0.519
S47: T 0.325, D -0.658, P -0.675, H -0.207, A -0.051, C 0.251, V 0.269, F 0.011, K 0.324, R 0.34, M 0.415, L 0.024, Q -0.212, E -0.726, N 0.092, I 0.336, W -0.519, G -0.336
S40: A -0.024, C 0.045, D 0.282, Q 0.004, E 0.003, G 0.116, R -0.254, W -0.1, V 0.134, L -0.258, N 0.167, Y 0.121, F -0.157, P -0.261, K -0.091, M 0.098
F44: C -0.689, V -0.756, L -0.351, Y -0.015, I -0.624, N -0.653, Q -0.745, A -0.614, H -0.807, E -0.683, W -0.244, R -0.753, G -0.754, D -0.749, P -0.685, K -0.818
K33: R -0.693, V -0.762, N -0.087, D -1.06, C -0.589, G -0.704, S -0.527, H -0.631, L -0.936, W -0.52, A -1.08, Q -0.94, I -0.939, T -0.618, F -0.661, P -1.13, E -0.672
A30: S -0.261, D -0.967, Y -0.468, C -0.696, F -0.858, L -0.562, V -0.742, M -0.479, G -0.045, N -0.433, T -0.795, E -0.831, K 0.007, H -0.692, R 0.034, W -0.517, I -0.82, Q -0.465
F43: L -0.693, G -0.753, A -0.552, D -0.64, M -0.291, W -0.58, K -0.644, V -0.658, T -0.695, I -0.611, N -0.565, P -1.12, Q -0.909, H -0.799, C -0.391
F32: P -0.686, M -0.624, A -0.622, Y -0.544, E -0.649, T -0.598, V -0.819, D -0.688, Q -0.855, H -0.447, K -1.01, G -0.916, R -0.543, N -1.28, W -0.61, I -0.469, L -0.337
T28: V -0.574, S -0.757, W -0.851
Y41: Q -0.403, R -0.741, P -0.538, D -0.673, A -0.431, C -0.227, N -0.727, H -0.304, W -0.331, K -0.787, S -0.72, E -0.486, V -0.388, T -0.511, L -0.624, G -0.496
L36: M -0.465, Q -0.668, A -0.785, N -0.522, P -0.244, F 0.097, E -0.728, H -0.988, D -0.37, V -0.187, R -0.528, G -0.993, K -0.725, T -0.824, S -0.629, C -0.563
M48: I -0.13, G 0.316, E 0.09, F -0.121, A 0.287, L -0.074, C 0.133, R 0.204, N 0.567, Q 0.089, K 0.039, H 0.056
D31: G -0.776, R -0.711, I -0.173, E -0.178, N -0.665, V -0.448, S -0.577, L -0.791, P -0.35, Y -0.714, A -0.099, W -0.618, H 0.282, T -0.217, F -0.742, M -0.047, Q -0.634, C -0.359
K46: L -0.138, M -0.081, H -0.132, W -0.227, T -0.392, R -0.08, N -0.046, F -0.488, Q 0.165, V -0.407, D -0.061, C -0.068, Y -0.401, S -0.196, G -0.223, P -0.437, I -0.189, E 0.277
L29: M -0.71, K -0.917, W -0.783, C -0.287, S -0.498, H -0.433, T -0.608, G -0.643, Y -0.321, N -0.865, D -0.97, I -0.675, E -0.782, Q -0.91, A -0.639
V35: E -0.468, I -0.141, D -0.892, T -0.167, C -0.074, N -0.375, A 0.173, S -0.257, Q -0.218, F -0.031, P -0.869, M -0.25, L -0.164, H -0.301, K -0.365, G -0.842, Y -0.212
Q37: K 0.165, T -0.067, A -0.1, E 0.048, W -0.483, Y -0.1, L -0.154, V -0.124, G 0.048, C -0.078, P 0.092, H -0.073, I -0.179, N 0.122, F -0.433, M -0.048, D 0.225
P39: Y -0.494, A -0.14, H 0.073, I -0.066, S 0.051, N 0.061, D 0.357, G 0.062, M 0.006, E 0, Q 0.11, W -0.466, V -0.106, K 0.194, T 0.062, C -0.306, R -0.037
R38: V -0.024, Q -0.069, T 0.187, W -0.099, N 0.255, Y -0.188, H 0.001, G -0.076, S 0.159, E 0.13, M 0.032, I -0.181, D 0.284, P -0.341, F -0.142, L -0.114, K 0.147, A 0.009, C 0.139
K42: H -0.043, Q -0.044, F 0.052, W -0.783, V -0.841, R 0.158, A -0.602, N -0.421, E -0.636, S -0.716, C -0.624, Y -0.957, D -0.953, L -0.86, M -0.659, T -0.356, P -0.763
